Laboratory results as given in the DeepSol protein solubility set.

assay: soluble on expression in E. coli; label from the status in PepcDB or PDB records

Soluble on expression in E. coli, not soluble:
MGSDKIHHHHHHMTTAQQTENKGQQTRTVAELVEDIKALTTEIQELYCLDQIPWVLGVSWGKDSSTVLQLVWNAIAALPPEKRTKTVYVITTDTQVENPVVSAWVRKSLQNLKIAAKEQGMPIDPHLLQPVIQDTFWVNLIGKGYPAPRNQFRWCTPRLKINPANQFIREIVRANGETILVLGTRKAESSKRAATMKKHQVDRVRDRLSPNASLPNSLIYTPIEDWSNNDVWIYLNQWNNPWGQSNKELFTMYRGATADNECPLVVDTSTPSCGDSRFGCWVCTLVSKDKSMEAMIQNDEEKEWMQPLLDIRNELDIKDDRDKRDFRRIWGEVQLFERNKDGKISVDPIPGPYTKYWREYWLKRLLEAQIKTRRTAPENMRDITLITLEEMSEIRRIWLEDKHEFDDSLPRIYQEVTGEEFQDPRPGADYSLLGRDEWIVLEEICEGDAMHLELMAKLLDTERQYRKKTRRVGIYETLEKCFNTSSRSPEDAIKNARLKRELSEAVSQGDVAKVKQMTLGDVAAINEVDEGQSESDEEVTWASMKFKKENSEE
MGSDKIHHHHHHMTTFEVKDTAHVAFKIINLRCPHCHHAASFSGFDGCSDLRYNVQAKRHPSGATTNTFDIAGMRRCPNTTCRKLVFVMEDKYGEIESFPPEVIDFDASNLPSDILSSLEEAIRCHAANCYRASALMVRRTLEELCDNKSATGKDLKTRLAALGTVAVIPSELLSAADELRILGNDAAHIEAKDYDSIGKEESEIAIELAKELLKAVYQYTSLVARLTALKKPKQ
MGSDKIHHHHHHMTTNEIEIRLMQDVDAAGVVELYKTVYGNEYPVKTVYDPAAVIEQQNNGEMYRIIARSGDKVVGQTALYRSTSPNPELYEEGQGIVLPLYRNQGILEQCLAYGHKVAYPQLNIKQEWGEAVCNHTFTQKAGARLGAFETGIELDLMPASSYVKEQSSQGRVAALVMFLIFQAAPPQLLYLPETYADSLHYLYSAYDFKHEFVSSKSLLPEQATRGQVEIYADAAVARFTLLETGKDLEDYLLEQEKLAQAQGCSVFQAYLKLANPAVGHAVNILREHQYFLGGILPRWFATDGLLMQKLLHEPNLEGINLYSERSHKILNMIIDDRNTVIK
MGSDKIHHHHHHMTTNSLLIIDFEFTMPDGKYSPQNFFPEIIEAGIVKSIDDEVVETFSSYVRPKKFPKLTKRCKSFLKITQKQVDEGMRFEDFIRKLNELDPEKNSTIITWGNMDMKVLKQNCMFNHIPFPFKGEMRDLSLEYKNFFGDRTLTGLWKAAEEYGDSGTGTHHKALDDALTAYKLFKLVEQDKQYLEKPKPPTIGERIDLTELLKRAT
MGSDKIHHHHHHMTTTSTPGLFERPITLPDADAQSRLAKLVGMDDKIRRLSNVLAVLINPAGLKEWLDQHHAHSTGLLDAVLRRPPLVVLSGDVGSGKTELAETIGDMVARQEGIDITLLPLSLSSRGQGRVGEMTQLVSAAFDHAFHEASKVKSSRGSRSRGGVILLVDEADALAQSREADQMHHEDRAGVNAFIRGIDRLANGHLPAAVLMCTNRLNALDPAVRRRAADILVFERPDEAQRLEVLHRRLGDAGFGKADLQSLVAATGEQAKRPYGFTYSDLTQRLLPAIVLDAYPQGPIKPSRAIELARAMAPTPPFKDSTARGC
MGSDKIHHHHHHMTVHWRERVGNQRDWVWRGWRTRYTYIRPSQEGQEKTPLILLHGFGASIGHWRHNLEVLGESHTVYALDMLGFGGSEKAPANYSIELWVEQVYDFWRAFIRQPVVLIGNSNGSLISLAAAAAHPDMVKGIVMMSLPDPSLEQEMIPPFLRPVVTTIKNIVASPIFLKPVFYFVRRPSILRRWAGIAYANPAAITDELVDILAGPPQDRGSARAFSALFKAAIGVNFSPSVKAILPTLQIPMLLIWGNKDRFVPPILANQFAQYNEKLQLLNLDDVGHCPHDECPEQVNKAILAWMDKSLGDY
MGSDKIHHHHHHMTVLHSPEPDIDPAILLEAADWLVLLQSGEATERDRMALAHWRERNPAHEAAWRRAENMLSTFDQVPPKLGHDTFSHLGNPGRRQMLRLGLLALAMPAAWITWRHSPWQEWVADLRTATGEQKLIDLNDGTHLVLNTTSAANVAFTTAERRLILLAGEILVTTGRDPSPVSRPFIVQTAHGSLRALGTRFTVRHFDDRTQVAVLEGAVEVHPAVSIQTTVLRAGEQMTFTGLDMQPVRPVEASTTLWEHGMLLARDMHLGELIAELNRYHRGVLRCDPSVASLAISGAFPVTDIPASLALLETTLPIRISSTTSWWITVQAR
MGSDKIHHHHHHMTVQQFIKKLVRLVELERNAEINAMLDEMKRLSGEEREKKGRAVLGLTGKFIGEELGYFLVRFGRRKKIDTEIGVGDLVLISKGNPLKSDYTGTVVEKGERFITVAVDRLPSWKLKNVRIDLFASDITFRRQIENLMTLSSEGKKALEFLLGKRKPEESFEEEFTPFDEGLNESQREAVSLALGSSDFFLIHGPFGTGKTRTLVEYIRQEVARGKKILVTAESNLAVDNLVERLWGKVSLVRIGHPSRVSSHLKESTLAHQIETSSEYEKVKKMKEELAKLIKKRDSFTKPSPQWRRGLSDKKILEYAEKNWSARGVSKEKIKEMAEWIKLNSQIQDIRDLIERKEEIIASRIVREAQVVLSTNSSAALEILSGIVFDVVVVDEASQATIPSILIPISKGKKFVLAGDHKQLPPTILSEDAKDLSRTLFEELITRYPEKSSLLDTQYRMNELLMEFPSEEFYDGKLKAAEKVRNITLFDLGVEIPNFGKFWDVVLSPKNVLVFIDTKNRSDRFERQRKDSPSRENPLEAQIVKEVVEKLLSMGVKEDWIGIITPYDDQVNLIRELIEAKVEVHSVDGFQGREKEVIIISFVRSNKNGEIGFLEDLRRLNVSLTRAKRKLIATGDSSTLSVHPTYRRFVEFVKKKGTYVIF
MGSDKIHHHHHHMTVRQDIHSSGIPVLCLSCAARLRGVCAALDPNHLVGLAKTSSRHKLEPGVELIADAEAVDSYSNLLSGVVKLTKCLSDGRQQIVGLRFAPDFLGRPFKVKSTINVEAATSVSLCSFPKAAVERIMKESPGLEHRLLKQTLDELDEALEWMVTLGRKTAPEKVASFLLMIARNMDSSIDPAAGSACFDLPLTRADISDFLGLTNETVSRQLTRLRADGVIRIENKRHVTVDSMSRLEQRCGGRGARQPAFE
MGSDKIHHHHHHMVEKLASSEVANRLNEWYDTIKQQDVERASKLRNEVQEAINQMEEDQNVLQYFNLIDSRFRQVIEEFDKSKTILKSIKNQTERSETDQLLRYYYFFFNGLYEFYKRNYIQAIHYYRQAENFLISIPDEIEHAEFHIQLANAYYGIEQNFFSLSHAKKALNIYLNHENYVNRLITTQLTIAANELDLKQYGSAETLYKKAIKTASEHNHAFMEVLGYFNLGICYELQDKLEFARDCFEAALDISYPQENKRDSYLRIKYMLARTLFKMELVDEAMDWFEDAQTLVDATNEETYQAKLKIIYSIYKTYDETSIDNGLEVLREKKLWHDVSDLTTNAARHFKKKEMFKLATKYFSEALLAKEKIPMLHKEVESE
MGSDKIHHHHHHMVGIVLASHGGFADGIAESAQMLFGPQDNFAHVILKPSEGPEDIKGKMNEAIASFADQEEVLFLVDLWGGTPFNQANGLLDGHDKWAIVSGLNLPMVVEALTQRMINDKATAQDIATAIIKPAKDGIKTKPESLMPAEEKAAAPAAAAGAPKEAIPEGTVLGDGHIKIVGARIDSRLLHGQVVTGWIPSLHPDRVIVVSDKIAKDDLRKSMIREAAPAGTVAHTVPLEKMKEIYEDPRFGTTHAFLLFENPEDALQTIKNGVDIKTLNVGSMSYSKGKVNANNVLSMDQTDVDTFRELEKMGIKFDVRKVPSDNPENMDSILKKAQSLLDEQSSSEKRS
MGSDKIHHHHHHMVGTDHVVHSLVACALCFKAVTLPLSSQTQILSGWGRTMPVQAKVVQPASVQQVQELVRQASPASLIARGLGRSYGDAAQLDGASAVEMGAFDQINLDLVKGSVTAGAGVSLNQLLRVIVPAGFFLPVTPGTRNVTIGGAIAADVHGKNHHVDGSFGNHLQRLLLVDGRGELRELTPSGKSSVDEIEQFWATVGGMGLTGIIVEATFSLIPISSSLISVNTARYHNLDELMAAMVASDSNYRYSVAWIDSLNAKGRGVLSCGDHAMAEQLPTSQQADPLVYDPKPLASAPTFLPVGLLNKLTVRAFNEAWFRKAPKQRLGELQTIGAYFHPLDGVQDWNRIYGPAGFLQYQFVVPDNASHLVLYTLEALRKIGTSSFLTVLKRFGPSNPGHLSFPMQGWTLAVDLPAAVPGLFEVLDHLDEHIAAENGRLYLAKDSRQSATILRRTYPRLEEWQQAREKLDPSKVFSSDMAIRTGL
MGSDKIHHHHHHMVIHKETMRSANEKSVLQRIFTEGPISKSQVARDVSLNKVTVSQIINKFISSRLVVEAGSGDSTQQGGRKPELVQINSKYGYVVCIDLGYQELSVLSMSINGQKLDSRHTIFGNDDINIAIEKIYEILVEFQEMHKERLLGLLVSIHGIVHKNQVIYSPFWNMKQIDLADTLSKKFDIPVILENEANLTATFERDYSVNEIQNAVSISMHKGIGAGIIIDGELYRGRKGEAGEIGQTVAFESENQSLEKSNKIEDVCSPQVILARIKNAKKLEYINWQLVRQMFDDKDQETLEILKEFENNVAKIINNVIVSFDPDVLVVNAYIFKEFPEILERISNGFAHVSVRNTPIVLSENVKNASLYGGCAQMIRTILGVSKLKLQYKK
MGSDKIHHHHHHMVIKEFNSLNTELVREIEKLTETCGKFDGIQEEVNLDDGFNFNKSMKWLFVLYEKDKVVSVVSIFAPKEEEGEISACTLPEYRRKGYFKELLSKAKNELLKYNVPKILFVCPKGSKQGEAVIKNSDAIYKFAEYTMNFNKNKFKAKGKYITKLAEANYNDLNKITKVASDVYSESYEQANSMMKNALESSDRLQFKLKLKEDYIGVVAAYFYHDKVSIFGVGILPEYRGRGFGREMMSMLLEYLIERDYDDIALEVDSNNKRAFELYKSIGFQIEREIDYYEEKINNTFYSY
MGSDKIHHHHHHMVKCIEEYVQVDDFKMYSKVFQGKKLQPVIIMEAGYGDYSKTWDHIAEELTEFGTVLTYDRAGLGKSGNSSKRRISSEMIKDLRSCLEKLQLKPPYIFVGHSFGGINARLFATFYSEDMLGIVLVDSTPENYKKDFLLIMSPEFQEAYYKQFVHESSYKEFMFSLGEADKHCQSMRNIPLVVLAAGKKAYYSQEAQMKWLQLQEELLRLSNNHKFIIAEQSGHYIQKDEPHYIIDAVKWIIEVGEG
MGSDKIHHHHHHMVKHHCRMVFKFKLGFFTDLHGSEYSFKRSLNIAKSKRVDFLIISGGLIAKEILFVEDIGGRYFLNGKKVNLNNLNEDALRSGKYIVVDKKEVIEDIKSDKSKLEKIVIEKASEQMSRWVKIAEEIFRLEKVFWSPAHGDIPQLDSILKNYGSNLINENVINLEEIQIVSLGFGSPIGNSYREIPDSELYIKGKSLLKDADKERLIMNFHMPPLNTKLDNAKVGLRKSHVGSKAVLDLITEFQPIISLHGHVHESTSMDKVGETIAINPGSLYQLGDPSIVTFEVHKELKSFGSVNVSKYVIKNIEFVSTNPLDVI
MGSDKIHHHHHHMVKNNNIAVKVEHVSKSFKLPTESSQSLRTTLVNLFKGIKGYVEYNVLQDISFEVEKGDFFGIVGRNGSGKSTLLKILSQIYVPERGTVAVDGKLVSFIELGVGFNPELTGKENVYLNGAMLGFTAEEIDAMYDDIVEFAELSEFMNQKLKNYSSGMQVRLAFSVAIKAQGDILILDEVLAVGDEAFQRKCNDYFLERKKSGKTTILVTHDMGAVKKYCNKALLIEKGYVKALGEPDDVANQYSFDNVLASISEVTENEEPLHQSDIVKDLQINLVSKNQIEPDESIEIEFRYTVLEDIETHVAFTFLDLERHFDVYNDNSMDLKTFGKGEKFFRVKCKLPSINQAKLKMAVSVRNSNKQPLLFAKTSDTPAIFISRKFSTDNIAEEDAATGFIQRNSQWELLD
